B1: Androgen receptor (Homo sapiens), P10275 (parent)
chain: MEVQLGLGRVYPRPPSKTYRGAFQNLFQSVREVIQNPGPRHPEAASAAPPGASLLLLQQQQQQQQQQQQQQQQQQQQQQQETSPRQQQQQQGEDGSPQAHRRGPTGYLVLDEEQQPSQPQSALECHPERGCVPEPGAAVAASKGLPQQLPAPPDEDDSAAPSTLSLLGPTFPGLSSCSADLKDILSEASTMQLLQQQQQEAVSEGSSSGRAREASGAPTSSKDNYLGGTSTISDNAKELCKAVSVSMGLGVEALEHLSPGEQLRGDCMYAPLLGVPPAVRPTPCAPLAECKGSLLDDSAGKSTEDTAEYSPFKGGYTKGLEGESLGCSGSAAAGSSGTLELPSTLSLYKSGALDEAAAYQSRDYYNFPLALAGPPPPPPPPHPHARIKLENPLDYGSAWAAAAAQCRYGDLASLHGAGAAGPGSGSPSAAASSSWHTLFTAEEGQLYGPCGGGGGGGGGGGGGGGGGGGGGGGEAGAVAPYGYTRPPQGLAGQESDFTAPDVWYPGGMVSRVPYPSPTCVKSEMGPWMDSYSGPYGDMRLETARDHVLPIDYYFPPQKTCLICGDEASGCHYGALTCGSCKVFFKRAAEGKQKYLCASRNDCTIDKFRRKNCPSCRLRKCYEAGMTLGARKLKKLGNLKLQEEGEASSTTSPTEETTQKLTVSHIEGYECQPIFLNVLEAIEPGVVCAGHDNNQPDSFAALLSSLNELGERQLVHVVKWAKALPGFRNLHVDDQMAVIQYSWMGLMVFAMGWRSFTNVNSRMLYFAPDLVFNEYRMHKSRMYSQCVRMRHLSQEFGWLQITPQEFLCMKALLLFSIIPVDGLKNQKFFDELRMNYIKELDRIIACKRKNPTSCSRRFYQLTKLLDSVQPIARELHQFTFDLLIKSHMVSVDFPEMMAEIISVQVPKILSGKVKPIYFHTQ
B2: Caspase-8 (Homo sapiens), Q14790 (parent)
chain: MDFSRNLYDIGEQLDSEDLASLKFLSLDYIPQRKQEPIKDALMLFQRLQEKRMLEESNLSFLKELLFRINRLDLLITYLNTRKEEMERELQTPGRAQISAYRVMLYQISEEVSRSELRSFKFLLQEEISKCKLDDDMNLLDIFIEMEKRVILGEGKLDILKRVCAQINKSLLKIINDYEEFSKERSSSLEGSPDEFSNGEELCGVMTISDSPREQDSESQTLDKVYQMKSKPRGYCLIINNHNFAKAREKVPKLHSIRDRNGTHLDAGALTTTFEELHFEIKPHDDCTVEQIYEILKIYQLMDHSNMDCFICCILSHGDKGIIYGTDGQEAPIYELTSQFTGLKCPSLAGKPKVFFIQACQGDNYQKGIPVETDSEEQPYLEMDLSSPQTRYIPDEADFLLGMATVNNCVSYRNPAEGTWYIQSLCQSLRERCPRGDDILTILTEVNYEVSNKDDKKNMGKQMPQPTFTLRKKLVFPSD

Variants of: B1
Settings: with casp8_human CASP8, Q14790

Variant | effect of a mutation on the interaction
L26A;F27A | disrupting interaction

Variants of: B2
Settings: with andr_human AR

Variant | effect of a mutation on the interaction
I174A;I175A | disrupting interaction strength

Variants of: B2
Settings: with andr_human AR, P10275

Variant | effect of a mutation on the interaction
F45A | disrupting interaction strength

Reference: IntAct's records for PubMed 17170703
